What all share (assay type): cell-based, mouse
Assay [1] deals with mPgc1b promoter. Put plainly: NHR-promoter luciferase screen, mPgc1b promoter. The conditions noted are these: for Luc. act., normalized to lacZ / Normalized Luc. act., normalized to control: PGC1b promoter reporter, co-transfected HR, without or with its ligand; for Normalized Luc. act., normalized to control: relative to control; for luciferase activity normalized to lacZ activity and to a control, mPgc1b: mPgc1b promoter-luciferase, CV-1 cells, NHR +/- ligand, control = 1.00. An outline of the steps:
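Luciferase reporter read-out after co-expression in CV-1 cells of V5H6-tagged receptor (alone or with RXR), the promoter construct and LacZ. Values are luciferase/LacZ relative to a control lacking NHR or ligand; orphan receptors tested ligand-free.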

Assay [2] deals with mUCP1 promoter. Put plainly: NHR-promoter luciferase screen, mUCP1 promoter. The conditions noted are these: for Luc. act., normalized to lacZ / Normalized Luc. act., normalized to control: mUCP1 promoter reporter, co-transfected HR, with or without its ligand; for Normalized Luc. act., normalized to control: relative to control; for luciferase activity normalized to lacZ activity and to a control, mUCP!: mUCP! promoter-luciferase, CV-1 cells, NHR +/- ligand, control = 1.00. An outline of the steps:
(§1)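 CV-1 cells were co-transfected with 50 ng NHR (homodimer or NHR/RXR heterodimer), 100 ng promoter-luciferase construct and 50 ng LacZ. Luciferase was normalized to LacZ and to a no-NHR/no-ligand control.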

The subject of assay [3] is mAdiponectin promoter. Put plainly: NHR-promoter luciferase screen, mAdiponectin promoter. The note with it: for Luc. act., normalized to lacZ / Normalized Luc. act., normalized to control: Adiponectin, HR component without or with its ligand; for mAdiponectin promoter reporter activity: transcription factor +/- ligand, control = 1.00. In a few lines:
as §1

The test system of assay [4] is mAgrp promoter. Put plainly: NHR-promoter luciferase screen, mAgrp promoter. The conditions noted are these: for Results of assays of transcription factor (+/- ligand) with mAgrp: Table 6d, luciferase activity relative to control (control = 1.00); for Luc. act., normalized to lacZ / Normalized Luc. act., normalized to control: mAgrp promoter, HR component with or without ligand; for Normalized Luc. act., normalized to control: relative to control. In a few lines: as §1

For assay [5], the system named is mGhrelin promoter. Put plainly: NHR-promoter luciferase screen, mGhrelin promoter. The note with it: for Luc. act., normalized to lacZ / Normalized Luc. act., normalized to control: Table 8, mGhrelin; for Results of assays of transcription factor (+/- ligand) with mGhrelin: Table 6d, luciferase activity relative to control (control = 1.00). In a few lines:
as §1

B1: RORb: RAR-related Orphan Receptor β (NR1F2), cDNA driver (protein, UniProt Q92753 1-470, looked up)
Nuclear receptor ROR-beta: MCENQLKTKADATAQIEVIPCKICGDKSSGIHYGVITCEGCKGFFRRSQQNNASYSCPRQRNCLIDRTNRNRCQHCRLQKCLALGMSRDAVKFGRMSKKQRDSLYAEVQKHQQRLQEQRQQQSGEAEALARVYSSSISNGLSNLNNETSGTYANGHVIDLPKSEGYYNVDSGQPSPDQSGLDMTGIKQIKQEPIYDLTSVPNLFTYSSFNNGQLAPGITMTEIDRIAQNIIKSHLETCQYTMEELHQLAWQTHTYEEIKAYQSKSREALWQQCAIQITHAIQYVVEFAKRITGFMELCQNDQILLLKSGCLEVVLVRMCRAFNPLNNTVLFEGKYGGMQMFKALGSDDLVNEAFDFAKNLCSLQLTEEEIALFSSAVLISPDRAWLIEPRKVQKLQEKIYFALQHVIQKNHLDDETLAKLIAKIPTITAVCNLHGEKLQVFKQSHPEIVNTLFPPLYKELFNPDCATGCK
As to B1, in assay [1], the “Luc. act., normalized to lacZ” value turned out to be 10.7; the “Normalized Luc. act., normalized to control” value worked out at 0.9; the “luciferase activity normalized to lacZ activity and to a control, mPgc1b” value (from here on “luciferase activity normalized … mPgc1b”) is recorded as 0.90. In assay [2], the “Luc. act., normalized to lacZ” value was determined as 3.8; the “Normalized Luc. act., normalized to control” value came to 0.9; the “luciferase activity normalized to lacZ activity and to a control, mUCP!” value (from here on “luciferase activity normalized … mUCP!”) turned out to be 0.86. In assay [3], the “Luc. act., normalized to lacZ” value is reported as 82.7; the “Normalized Luc. act., normalized to control” value was found to be 1.3; the “mAdiponectin promoter reporter activity” value worked out at 1.32. Besides, in assay [4], the “Results of assays of transcription factor (+/- ligand) with mAgrp” value (“Results of assays … with mAgrp” for short) is reported as 1.37; the “Luc. act., normalized to lacZ” value was determined as 54.3; the “Normalized Luc. act., normalized to control” value worked out at 1.4. In addition, in assay [5], the “Luc. act., normalized to lacZ” value is 89.1; the “Normalized Luc. act., normalized to control” value was determined as 1.7; the “Results of assays of transcription factor (+/- ligand) with mGhrelin” value (“Results of assays … with mGhrelin” for short) was 1.70.

B2: CAR: Constitutive Androstane Receptor (NR1I3), cDNA driver (protein, UniProt Q14994 1-352, looked up)
Nuclear receptor subfamily 1 …: MASREDELRNCVVCGDQATGYHFNALTCEGCKGFFRRTVSKSIGPTCPFAGSCEVSKTQRRHCPACRLQKCLDAGMRKDMILSAEALALRRAKQAQRRAQQTPVQLSKEQEELIRTLLGAHTRHMGTMFEQFVQFRPPAHLFIHHQPLPTLAPVLPLVTHFADINTFMVLQVIKFTKDLPVFRSLPIEDQISLLKGAAVEICHIVLNTTFCLQTQNFLCGPLRYTIEDGARVSPTVGFQVEFLELLFHFHGTLRKLQLQEPEYVLLAAMALFSPDRPGVTQRDEIDQLQEEMALTLQSYIKGQQRRPRDRFLYAKLLGLLAELRSINEAYGYQIQHIQGLSAMMPLLQEICS
For B2, in assay [1], the “Luc. act., normalized to lacZ” value is reported as 9.21; the “Normalized Luc. act., normalized to control” value was found to be 0.8; the “luciferase activity normalized … mPgc1b” value came to 0.78. Moreover, in assay [2], the “Luc. act., normalized to lacZ” value was determined as 3.3; the “Normalized Luc. act., normalized to control” value amounted to 0.7; the “luciferase activity normalized … mUCP!” value stood at 0.74. In addition, in assay [3], the “Luc. act., normalized to lacZ” value was 46.8; the “Normalized Luc. act., normalized to control” value was found to be 0.7; the “mAdiponectin promoter reporter activity” value came out at 0.74. For the same molecule, in assay [4], the “Results of assays … with mAgrp” value is on record as 1.06; the “Luc. act., normalized to lacZ” value is recorded as 42.2; the “Normalized Luc. act., normalized to control” value amounted to 1.1. Also, in assay [5], the “Luc. act., normalized to lacZ” value turned out to be 52.2; the “Normalized Luc. act., normalized to control” value is 1.0; the “Results of assays … with mGhrelin” value is reported as 1.00.

B3: RXRg: Retinoic X Receptor γ (NR2B3), cDNA driver (protein, UniProt P48443 1-463, looked up)
Retinoic acid receptor …: MYGNYSHFMKFPAGYGGSPGHTGSTSMSPSAALSTGKPMDSHPSYTDTPVSAPRTLSAVGTPLNALGSPYRVITSAMGPPSGALAAPPGINLVAPPSSQLNVVNSVSSSEDIKPLPGLPGIGNMNYPSTSPGSLVKHICAICGDRSSGKHYGVYSCEGCKGFFKRTIRKDLIYTCRDNKDCLIDKRQRNRCQYCRYQKCLVMGMKREAVQEERQRSRERAESEAECATSGHEDMPVERILEAELAVEPKTESYGDMNMENSTNDPVTNICHAADKQLFTLVEWAKRIPHFSDLTLEDQVILLRAGWNELLIASFSHRSVSVQDGILLATGLHVHRSSAHSAGVGSIFDRVLTELVSKMKDMQMDKSELGCLRAIVLFNPDAKGLSNPSEVETLREKVYATLEAYTKQKYPEQPGRFAKLLLRLPALRSIGLKCLEHLFFFKLIGDTPIDTFLMEMLETPLQIT
Regarding B3, in assay [1], the “Luc. act., normalized to lacZ” value was found to be 9.0; the “Normalized Luc. act., normalized to control” value was 0.8; the “luciferase activity normalized … mPgc1b” value is given as 0.76. In addition, in assay [2], the “Luc. act., normalized to lacZ” value turned out to be 2.5; the “Normalized Luc. act., normalized to control” value is recorded as 0.6; the “luciferase activity normalized … mUCP!” value came to 0.55. In assay [3], the “Luc. act., normalized to lacZ” value stood at 69.4; the “Normalized Luc. act., normalized to control” value is given as 1.1; the “mAdiponectin promoter reporter activity” value worked out at 1.10. Besides, in assay [4], the “Results of assays … with mAgrp” value amounted to 1.30; the “Luc. act., normalized to lacZ” value is given as 51.5; the “Normalized Luc. act., normalized to control” value came to 1.3. Besides, in assay [5], the “Luc. act., normalized to lacZ” value stood at 59.0; the “Normalized Luc. act., normalized to control” value was 1.1; the “Results of assays … with mGhrelin” value worked out at 1.13.

B4: RXRb: Retinoic X Receptor β (NR2B2), cDNA driver (protein, UniProt P28702 1-533, looked up)
Retinoic acid receptor …: MSWAARPPFLPQRHAAGQCGPVGVRKEMHCGVASRWRRRRPWLDPAAAAAAAVAGGEQQTPEPEPGEAGRDGMGDSGRDSRSPDSSSPNPLPQGVPPPSPPGPPLPPSTAPSLGGSGAPPPPPMPPPPLGSPFPVISSSMGSPGLPPPAPPGFSGPVSSPQINSTVSLPGGGSGPPEDVKPPVLGVRGLHCPPPPGGPGAGKRLCAICGDRSSGKHYGVYSCEGCKGFFKRTIRKDLTYSCRDNKDCTVDKRQRNRCQYCRYQKCLATGMKREAVQEERQRGKDKDGDGEGAGGAPEEMPVDRILEAELAVEQKSDQGVEGPGGTGGSGSSPNDPVTNICQAADKQLFTLVEWAKRIPHFSSLPLDDQVILLRAGWNELLIASFSHRSIDVRDGILLATGLHVHRNSAHSAGVGAIFDRVLTELVSKMRDMRMDKTELGCLRAIILFNPDAKGLSNPSEVEVLREKVYASLETYCKQKYPEQQGRFAKLLLRLPALRSIGLKCLEHLFFFKLIGDTPIDTFLMEMLEAPHQLA
With B4, in assay [1], the “Luc. act., normalized to lacZ” value worked out at 11.7; the “Normalized Luc. act., normalized to control” value stood at 1.0; the “luciferase activity normalized … mPgc1b” value turned out to be 0.99. In assay [2], the “Luc. act., normalized to lacZ” value is 0.9; the “Normalized Luc. act., normalized to control” value came to 0.2; the “luciferase activity normalized … mUCP!” value was found to be 0.21. In addition, in assay [3], the “Luc. act., normalized to lacZ” value is on record as 71.8; the “Normalized Luc. act., normalized to control” value is 1.1; the “mAdiponectin promoter reporter activity” value is on record as 1.14. In assay [4], the “Results of assays … with mAgrp” value worked out at 1.30; the “Luc. act., normalized to lacZ” value came out at 51.6; the “Normalized Luc. act., normalized to control” value worked out at 1.3. Also, in assay [5], the “Luc. act., normalized to lacZ” value came out at 62.9; the “Normalized Luc. act., normalized to control” value was 1.2; the “Results of assays … with mGhrelin” value amounted to 1.20.

B5: PXR: Pregnane X Receptor (NR1I2), cDNA driver (protein, UniProt O75469 1-434, looked up)
Nuclear receptor subfamily 1 …: MEVRPKESWNHADFVHCEDTESVPGKPSVNADEEVGGPQICRVCGDKATGYHFNVMTCEGCKGFFRRAMKRNARLRCPFRKGACEITRKTRRQCQACRLRKCLESGMKKEMIMSDEAVEERRALIKRKKSERTGTQPLGVQGLTEEQRMMIRELMDAQMKTFDTTFSHFKNFRLPGVLSSGCELPESLQAPSREEAAKWSQVRKDLCSLKVSLQLRGEDGSVWNYKPPADSGGKEIFSLLPHMADMSTYMFKGIISFAKVISYFRDLPIEDQISLLKGAAFELCQLRFNTVFNAETGTWECGRLSYCLEDTAGGFQQLLLEPMLKFHYMLKKLQLHEEEYVLMQAISLFSPDRPGVLQHRVVDQLQEQFAITLKSYIECNRPQPAHRFLFLKIMAMLTELRSINAQHTQRLLRIQDIHPFATPLMQELFGITGS
Turning to B5, in assay [1], the “Luc. act., normalized to lacZ” value is 10.19; the “Normalized Luc. act., normalized to control” value is on record as 0.9; the “luciferase activity normalized … mPgc1b” value is reported as 0.86. In assay [2], the “Luc. act., normalized to lacZ” value was found to be 2.1; the “Normalized Luc. act., normalized to control” value was 0.5; the “luciferase activity normalized … mUCP!” value was found to be 0.47. Moreover, in assay [3], the “Luc. act., normalized to lacZ” value was found to be 97.1; the “Normalized Luc. act., normalized to control” value was determined as 1.5; the “mAdiponectin promoter reporter activity” value is listed as 1.55. Besides, in assay [4], the “Results of assays … with mAgrp” value stood at 1.51; the “Luc. act., normalized to lacZ” value came to 60.0; the “Normalized Luc. act., normalized to control” value was found to be 1.5. In assay [5], the “Luc. act., normalized to lacZ” value is 136.2; the “Normalized Luc. act., normalized to control” value worked out at 2.6; the “Results of assays … with mGhrelin” value came out at 2.61.

The record behind these values is patent US20110263454A1, “Methods of Identifying Functional Characteristics of Promoters, Transcription Modifying Proteins and Transcription Modulating Agents” (Salk Institute for Biological Studies, priority 2008, published 2011).
